The target of test [1] is T1, cynomolgus CCL20-secreted alkaline phosphatase (SEAP) fusion (cynomolgus monkey).
T1 construct: also called cCCL20; cynomolgus CCL20-SEAP; not shown: the SEAP reporter (cDNA from Clontech pSEAP-Enhancer) and its junction to CCL20
T1 chain: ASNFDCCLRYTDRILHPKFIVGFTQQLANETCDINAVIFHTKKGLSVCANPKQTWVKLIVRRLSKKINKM
In words: ELISA, serially diluted CCL20-SEAP captured by anti-alkaline phosphatase antibody, antibody at 1 µg/ml. The procedure:
(§1) To test whether the chimeric and humanized antibodies can bind to mouse, cynomolgus, or rhesus macaque CCL20 orthologs, we used ELISA assays as illustrated in FIG. 15. Recombinant secreted alkaline phosphatase (SEAP)-chemokine fusion proteins were engineered as described in Example 2, expressed and purified for all of the CCL20 orthologs tested. Nunc MaxiSorb flat-bottom black plates were coated with 1 μg/ml mouse anti-placental alkaline phosphatase antibody (Pierce, cat# MA1-19354) in 50 mM sodium bicarbonate, pH 9.4, overnight at 4° C. Plates were then blocked using 1× phosphate buffered saline with Tween-20 (PBST) with 5% bovine serum albumin (BSA) for 2 hours at room temperature. 20 nM SEAP-CCL20 fusion proteins were serially diluted 5-fold in Opti-MEM medium (Invitrogen). Chimeric and humanized (HC2/LC3 and HC2/LK3) antibodies were diluted to 1 μg/ml in 1×PBST with 5% BSA, added to the plates, and incubated for 1 hr at room temperature. The plates were then washed with 1×PBST with 5% BSA three times. […] QuantaBlu fluorescent HRP substrate (Pierce cat#15169) was added for detection of bound antibody by measuring fluorescence in a Molecular Devices M5 (Excitation 325 nm/Emission 420 nm) plate reader. […]

For test [2], the target named is T2, human CCL20-secreted alkaline phosphatase (SEAP) fusion (human, UniProt P78556 27-96).
T2 construct: also called hCCL20; human CCL20-SEAP; not shown: secreted alkaline phosphatase (SEAP), cDNA from pSEAP-Enhancer vector (Clontech)
T2 sequence (P78556 27-96): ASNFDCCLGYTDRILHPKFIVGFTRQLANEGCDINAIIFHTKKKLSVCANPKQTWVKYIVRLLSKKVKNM
In words: ELISA, serially diluted CCL20-SEAP captured by anti-alkaline phosphatase antibody, antibody at 1 µg/ml; human CCL20-SEAP. The procedure: as §1

The target in test [3] is T3, recombinant human CXCL4 (human, UniProt P02776 32-101).
T3 construct: also called PF4
T3 sequence (looked up): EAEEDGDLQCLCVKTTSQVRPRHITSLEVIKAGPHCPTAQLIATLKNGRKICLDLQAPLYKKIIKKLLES
In words: ELISA, plate-bound chemokine (1 ug/ml), antibody 10 ug/ml, OD450. The essentials:
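Wells coated overnight at 4 °C with 1 μg/ml recombinant human chemokine in PBS, blocked 1 h, then incubated 1 h at room temperature with antibodies at 10 μg/ml in 0.02% Tween 20/PBS. TMB development 15–30 min, stopped with 2 M H2SO4, OD read at 450 nm.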

Test [4] concerns the target T3, recombinant human CXCL4. In words: SPR (Biacore): antibody captured on the sensor chip, free chemokine injected; concentration not shown.

B1: humanized anti-human CCL20 antibody 36LC3/36HC2 (antibody, human IgG1, kappa, V domains shown)
VH: QVQLVQSGAEVKKPGASVKVSCKASGYTFTNYWMHWVRQAPGQGLEWMGVIDPSDSYTTYAQKFQGRVTMTVDTSTSTVYMELSSLRSEDTAVYYCARGNYGVDYAMDYWGQGTLVTVSS
VL: DIQMTQSPSSLSASVGDRVTITCRASENIYGALNWYQQKPGKAPKLLIYGATNLADGVPSRFSGSGSGRQYSLTISSLQPEDFATYYCQNVLITPYTFGGGTKLEIKR
notes: expressed in HEK293 cells; also called HC2/LC3; HC2LC3
B1: in test [1], the “fold difference of EC50 versus human CCL20” value came to 5.4 fold. Moreover, in test [2], the EC50 was 0.062 nM.

B2: mouse anti-human CCL20 monoclonal antibody 36F7C10 (antibody, V domains shown)
VH: QVQLQQPGAELVKPGASVKMSCKASGYTFTNYWMHWVKQRPGQGLEWIGVIDPSDSYTTYNQKFKGKATLTVDTSSSTAYMQLSSLTSEDSAVYYCTRGNYGVDYAMDYWGQGTSVTVSS
VL: DIQMTQSPASLSASVGETVTITCGASENIYGALNWYQRKQGKSPQLLIYGATNLADGMSSRFSGSGSGRQYSLKISSLHPDDVATYYCQNVLITPYTFGGGTKLEIK
notes: Mouse hybridoma antibody; also called MouseMAb; parental mouse clone 36F7C10
Turning to B2, in the test with recombinant human CXCL4 [3], the binding result was “no binding (tested: 10 ug/ml)”.

B3: chimeric 36F7C10 antibody (36F7C10-hFc) (antibody, V domains shown)
VH: B2 VH
VL: B2 VL
notes: also called chimeric 36F710; Chimeric MAb
Turning to B3, the binding result with recombinant human CXCL4 [4] is on record as “no binding”.

The values are drawn from US20160046707A1 (EISAI R AND D MANAGEMENT, published 2016).
